Test results from patent US20180256699A1 (University of Texas, published 2018).

Key:
Assay in all cases: ELISA, murine αMβ2 integrin coated, domain serially diluted
[1] = biological target: CAT400, catalytic domain of ACT, residues 1-400 (Bordetella pertussis, UniProt J7QLC0 1-400)
Procedure: (§1) To assess non-specific binding, control wells were not coated with αMβ₂ receptor but blocked with M-PBST only.
(§2) Recombinant murine αMβ₂ integrin (R&D Systems) was coated at 1 μg/mL in PBS at 4° C. overnight, and blocked with M-PBST.

[2] = biological target: HP1096, hydrophobic domain of ACT, residues 399-1096, MBP fusion, non-acylated (Bordetella pertussis, UniProt J7QLC0 399-1096)
Procedure: as §1, §2

[3] = biological target: HP1096*, hydrophobic domain of ACT, residues 399-1096, MBP fusion, acylated (Bordetella pertussis, UniProt J7QLC0 399-1096)
Procedure: as §1, §2

[4] = biological target: RTX985, RTX domain of ACT, residues 985-1706 (Bordetella pertussis, UniProt J7QLC0 985-1706)
Procedure: as §1, §2

Measured: binding result

B1: Recombinant soluble murine αMβ2 integrin (R&D Systems) (receptor)
chain 1: FNLDTEHPMTFQENAKGFGQNVVQLGGTSVVVAAPQEAKAVNQTGALYQCDYSTSRCHPIPLQVPPEAVNMSLGLSLAVSTVPQQLLACGPTVHQNCKENTYVNGLCYLFGSNLLRPPQQFPEALRECPQQESDIVFLIDGSGSINNIDFQKMKEFVSTVMEQFKKSKTLFSLMQYSDEFRIHFTFNDFKRNPSPRSHVSPIKQLNGRTKTASGIRKVVRELFHKTNGARENAAKILVVITDGEKFGDPLDYKDVIPEADRAGVIRYVIGVGNAFNKPQSRRELDTIASKPAGEHVFQVDNFEALNTIQNQLQEKIFAIEGTQTGSTSSFEHEMSQEGFSASITSNGPLLGSVGSFDWAGGAFLYTSKDKVTFINTTRVDSDMNDAYLGYASAVILRNRVQSLVLGAPRYQHIGLVVMFRENFGTWEPHTSIKGSQIGSYFGASLCSVDMDADGNTNLILIGAPHYYEKTRGGQVSVCPLPRGRARWQCEALLHGDQGHPWGRFGAALTVLGDVNGDKLTDVAIGAPGEQENQGAVYIFYGASIASLSASHSHRIIGAHFSPGLQYFGQSLSGGKDLTMDGLMDLAVGAQGHLLLLRAQPVLRLEATMEFSPKKVARSVFACQEQVLKNKDAGEVRVCLRVRKNTKDRLREGDIQSTVTYDLALDPVRSRIRAFFDETKNNTRRRTQVFGLMQKCETLKLILPDCVDDSVSPIILRLNYTLVGEPLRSFGNLRPVLAMDAQRFFTAMFPFEKNCGNDSICQDDLSITMSAMGLDTLVVGGPQDFNMSVTLRNDGEDSYGTQVTVYYPSGLSYRKDSASQNPLTKKPWFVKPAESSSSSEGHGALKSTTWNINHPIFPANSEVTFNVTFDVDSHASFGNKLLLKAIVASENNMSRTHKTKFQLELPVKYAIYMIVTSDESSIRYLNFTASEMTSKVIQHQYQFNNLGQRSLPVSVVFWIPVQINNVTVWDHPQVIFSQNLSSACHTEQKSPPHSNFRDQLERTPVLNCSVAVCKRIQCDLPSFNTQEIFNVTLKGNLSFDWYIKTSHGHLLLVSSTEILFNDSAFALLPGQESYVRSKTETKVEPYEVHN
chain 2: QECTKYKVSSCRDCIQSGPGCSWCQKLNFTGPGEPDSLRCDTRAQLLLKGCPADDIMDPRSIANPEFDQRGQRKQLSPQKVTLYLRPGQAAAFNVTFRRAKGYPIDLYYLMDLSYSMLDDLNNVKKLGGDLLQALNEITESGRIGFGSFVDKTVLPFVNTHPEKLRNPCPNKEKACQPPFAFRHVLKLTDNSNQFQTEVGKQLISGNLDAPEGGLDAIMQVAACPEEIGWRNVTRLLVFATDDGFHFAGDGKLGAILTPNDGRCHLEDNMYKRSNEFDYPSVGQLAHKLSESNIQPIFAVTKKMVKTYEKLTEIIPKSAVGELSDDSSNVVQLIKNAYYKLSSRVFLDHSTLPDTLKVTYDSFCSNGASSIGKSRGDCDGVQINNPVTFQVKVMASECIQEQSFVIRALGFTDTVTVQVRPQCECQCRDQSREQSLCGGKGVMECGICRCESGYIGKNCECQTQGRSSQELERNCRKDNSSIVCSGLGDCICGQCVCHTSDVPNKEIFGQYCECDNVNCERYNSQVCGGSDRGSCNCGKCSCKPGYEGSACQCQRSTTGCLNARLVECSGRGHCQCNRCICDEGYQPPMCEDCPSCGSHCRDNHTSCAECLKFDKGPFEKNCSVQCAGMTLQTIPLKKKPCKERDSEGCWITYTLQQKDGRNIYNIHVEDSLECVKGPN
notes: extracellular domain; also called αMβ2 receptor; soluble αMβ2 integrin
no binding: all assays above
